Experimental findings from the supplement of paper PMC10724198 are described below.

Series [1] concerns Saccharomyces cerevisiae. As to the kind of experiment: protein stability index of tFT-peptide fusion (C-terminal peptide) (PSI (0-1 scale)); higher = more stable (slower turnover). As to the method:
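MPS profiling in S. cerevisiae of the tFT-X12 degron library: putative degron peptides plus stable controls, 12 aa, fused to the C-terminus of a sfGFP-mCherry timer. Cells are FACS-sorted into 8 mCherry/sfGFP bins and deep-sequenced. PSI runs from 0 (unstable) to 1 (stable). Backgrounds are wild type, das1Δ and doa10Δ at 30 °C, and wild type, das1Δ, cdc34-1 and cdc53-1 at 37 °C; 2-3 technical replicates each.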

The subject of series [2] is Saccharomyces cerevisiae. The series is described as above. As to conditions: genetic background: wild type; temperature: 30 C.
[3] abbreviates: genetic background: cdc34-1, temperature: 37 C.
The mark [4] stands for this setting: genetic background: cdc53-1, temperature: 37 C.
The mark [5] stands for this setting: genetic background: das1 deletion, temperature: 30 C.
Setting [6] is: genetic background: das1 deletion, temperature: 37 C.
Where [7] appears, read: genetic background: doa10 deletion, temperature: 30 C.
Setting [8] is: genetic background: wild type, temperature: 30 C.
Setting [9] is: genetic background: wild type, temperature: 37 C.

± gives the standard deviation of the averaged measurements.
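Further: PSI is a weighted mean of sequencing reads over stability bins, variants kept only with over 10 reads, mCherry proximal and sfGFP distal, peptide attached via GGGS linker.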

For the sequence YLAGPLARLRKF, the protein stability index in the series on Saccharomyces cerevisiae [1] (setting [3]) was determined as 0.68 ± 0.046; in the series with Saccharomyces cerevisiae [1] (setting [4]) it was 0.7579 ± 0.0021; with Saccharomyces cerevisiae [1] (setting [5]) it was 0.752 ± 0.027; in the series on Saccharomyces cerevisiae [1] (setting [6]) it was 0.738 ± 0.0093; in the series with Saccharomyces cerevisiae [1] (setting [7]), 0.716 ± 0.037; with Saccharomyces cerevisiae [1] (setting [8]), 0.749 ± 0.041. Also, the values for the protein stability index in the series on Saccharomyces cerevisiae [1] (setting [9]) and in the series with Saccharomyces cerevisiae [2] were 0.735 ± 0.013 and 0.751 ± 0.037, respectively.

As for YLDRFIFIYNIF, the protein stability index was determined as 0.603 ± 0.034 with Saccharomyces cerevisiae [1] (setting [3]); 0.6848 ± 0.0062 in the series on Saccharomyces cerevisiae [1] (setting [4]); 0.599 ± 0.048 with Saccharomyces cerevisiae [1] (setting [5]); 0.707 ± 0.031 in the series with Saccharomyces cerevisiae [1] (setting [6]); 0.189 ± 0.0069 in the series on Saccharomyces cerevisiae [1] (setting [7]); 0.202 ± 0.017 in the series on Saccharomyces cerevisiae [1] (setting [8]). The protein stability index in the series on Saccharomyces cerevisiae [1] (setting [9]) came out at 0.367 ± 0.023; in the series with Saccharomyces cerevisiae [2] it was 0.26 ± 0.025.

YLGLSAVAILWM: the protein stability index was 0.538 ± 0.041 in the series with Saccharomyces cerevisiae [1] (setting [3]); 0.533 ± 0.02 in the series with Saccharomyces cerevisiae [1] (setting [4]); 0.414 ± 0.029 in the series with Saccharomyces cerevisiae [1] (setting [5]); 0.563 ± 0.014 in the series on Saccharomyces cerevisiae [1] (setting [6]); 0.381 ± 0.011 in the series on Saccharomyces cerevisiae [1] (setting [7]); 0.412 ± 0.018 with Saccharomyces cerevisiae [1] (setting [8]). Also, the protein stability index was determined as 0.529 ± 0.011 in the series on Saccharomyces cerevisiae [1] (setting [9]) and 0.4784 ± 0.0037 in the series with Saccharomyces cerevisiae [2].

In the case of YLVFSLCSYRFL, the protein stability index with Saccharomyces cerevisiae [1] (setting [3]) amounted to 0.596 ± 0.012; with Saccharomyces cerevisiae [1] (setting [4]), 0.677 ± 0.022; with Saccharomyces cerevisiae [1] (setting [5]) it was 0.511 ± 0.019; in the series on Saccharomyces cerevisiae [1] (setting [6]) it was 0.653 ± 0.011; with Saccharomyces cerevisiae [1] (setting [7]), 0.36 ± 0.011; with Saccharomyces cerevisiae [1] (setting [8]), 0.374 ± 0.029. The results for the protein stability index with Saccharomyces cerevisiae [1] (setting [9]) and with Saccharomyces cerevisiae [2] were 0.549 ± 0.016 and 0.457 ± 0.033, respectively.

For YNRKQEAAQKAN, the protein stability index was determined as 0.671 ± 0.02 in the series on Saccharomyces cerevisiae [1] (setting [3]); 0.735 ± 0.029 in the series with Saccharomyces cerevisiae [1] (setting [4]); 0.617 ± 0.0072 in the series with Saccharomyces cerevisiae [1] (setting [5]); 0.71085 ± 0.00017 in the series on Saccharomyces cerevisiae [1] (setting [6]); 0.363 ± 0.025 in the series with Saccharomyces cerevisiae [1] (setting [7]); 0.396 ± 0.018 with Saccharomyces cerevisiae [1] (setting [8]). The protein stability index was found to be 0.606 ± 0.011 in the series with Saccharomyces cerevisiae [1] (setting [9]) and 0.486 ± 0.14 in the series with Saccharomyces cerevisiae [2].

In the case of YNTRLCTFSCML, the protein stability index in the series on Saccharomyces cerevisiae [1] (setting [3]) worked out at 0.772 ± 0.013; in the series on Saccharomyces cerevisiae [1] (setting [4]), 0.8079 ± 0.007; in the series on Saccharomyces cerevisiae [1] (setting [5]), 0.668 ± 0.033; in the series on Saccharomyces cerevisiae [1] (setting [6]) it was 0.7881 ± 0.0015; in the series with Saccharomyces cerevisiae [1] (setting [7]) it was 0.657 ± 0.025; in the series on Saccharomyces cerevisiae [1] (setting [8]) it was 0.698 ± 0.021. Also, the values for the protein stability index in the series on Saccharomyces cerevisiae [1] (setting [9]) and with Saccharomyces cerevisiae [2] were 0.772 ± 0.011 and 0.755 ± 0.0089, respectively.

In the case of YPCRLFVRSLLA, the protein stability index stood at 0.442 ± 0.05 in the series with Saccharomyces cerevisiae [1] (setting [3]); 0.436 ± 0.031 with Saccharomyces cerevisiae [1] (setting [4]); 0.369 ± 0.023 in the series on Saccharomyces cerevisiae [1] (setting [5]); 0.498 ± 0.0098 with Saccharomyces cerevisiae [1] (setting [6]); 0.205 ± 0.0068 with Saccharomyces cerevisiae [1] (setting [7]); 0.235 ± 0.022 in the series with Saccharomyces cerevisiae [1] (setting [8]). Besides, the values for the protein stability index in the series on Saccharomyces cerevisiae [1] (setting [9]) and with Saccharomyces cerevisiae [2] were 0.375 ± 0.019 and 0.32 ± 0.051, respectively.

Turning to YRGFFIGKLMLV, the protein stability index amounted to 0.488 ± 0.04 with Saccharomyces cerevisiae [1] (setting [3]); 0.548 ± 0.03 in the series with Saccharomyces cerevisiae [1] (setting [4]); 0.482 ± 0.035 in the series on Saccharomyces cerevisiae [1] (setting [5]); 0.63 ± 0.013 with Saccharomyces cerevisiae [1] (setting [6]); 0.112 ± 0.017 with Saccharomyces cerevisiae [1] (setting [7]); 0.113 ± 0.018 in the series on Saccharomyces cerevisiae [1] (setting [8]). The figures for the protein stability index in the series with Saccharomyces cerevisiae [1] (setting [9]) and in the series with Saccharomyces cerevisiae [2] were 0.216 ± 0.081 and 0.201 ± 0.013, respectively.

On to YRKKIKNIWLRW, for which the protein stability index with Saccharomyces cerevisiae [1] (setting [3]) worked out at 0.442 ± 0.017; in the series with Saccharomyces cerevisiae [1] (setting [4]), 0.428 ± 0.026; in the series on Saccharomyces cerevisiae [1] (setting [5]), 0.475 ± 0.033; with Saccharomyces cerevisiae [1] (setting [6]) it was 0.6017 ± 0.0025; in the series on Saccharomyces cerevisiae [1] (setting [7]) it was 0.444 ± 0.058; in the series with Saccharomyces cerevisiae [1] (setting [8]), 0.322 ± 0.033. The protein stability index in the series with Saccharomyces cerevisiae [1] (setting [9]) was 0.535 ± 0.0073; in the series on Saccharomyces cerevisiae [2] it was 0.473 ± 0.041.

As for YRLTIVWFFLAL, the protein stability index in the series with Saccharomyces cerevisiae [1] (setting [3]) stood at 0.434 ± 0.028; in the series on Saccharomyces cerevisiae [1] (setting [4]) it was 0.519 ± 0.006; in the series with Saccharomyces cerevisiae [1] (setting [5]) it was 0.354 ± 0.026; with Saccharomyces cerevisiae [1] (setting [6]), 0.609 ± 0.034; in the series with Saccharomyces cerevisiae [1] (setting [7]), 0.3504 ± 0.002; in the series on Saccharomyces cerevisiae [1] (setting [8]), 0.349 ± 0.012. For the same sequence, the protein stability index turned out to be 0.513 ± 0.011 in the series with Saccharomyces cerevisiae [1] (setting [9]) and 0.427 ± 0.055 in the series on Saccharomyces cerevisiae [2].

Consider YSVERCLFVSVA, for which the protein stability index in the series on Saccharomyces cerevisiae [1] (setting [3]) was 0.422 ± 0.025; in the series on Saccharomyces cerevisiae [1] (setting [4]), 0.4443 ± 0.0013; in the series on Saccharomyces cerevisiae [1] (setting [5]), 0.352 ± 0.034; with Saccharomyces cerevisiae [1] (setting [6]), 0.502 ± 0.013; in the series on Saccharomyces cerevisiae [1] (setting [7]), 0.287 ± 0.02; in the series on Saccharomyces cerevisiae [1] (setting [8]), 0.314 ± 0.01. Further, the protein stability index is 0.443 ± 0.018 with Saccharomyces cerevisiae [1] (setting [9]) and 0.414 ± 0.034 with Saccharomyces cerevisiae [2].

Turning to YVASSWRHCFII, the protein stability index in the series on Saccharomyces cerevisiae [1] (setting [3]) turned out to be 0.5016 ± 0.0016; with Saccharomyces cerevisiae [1] (setting [4]), 0.657 ± 0.039; in the series with Saccharomyces cerevisiae [1] (setting [5]), 0.658 ± 0.022; in the series on Saccharomyces cerevisiae [1] (setting [6]) it was 0.724 ± 0.039; with Saccharomyces cerevisiae [1] (setting [7]), 0.145 ± 0.012; in the series with Saccharomyces cerevisiae [1] (setting [8]), 0.152 ± 0.014. In addition, the protein stability index in the series on Saccharomyces cerevisiae [1] (setting [9]) amounted to 0.269 ± 0.023; with Saccharomyces cerevisiae [2], 0.221 ± 0.039.

As to YVLLSRVSVFSA, the protein stability index in the series with Saccharomyces cerevisiae [1] (setting [3]) came out at 0.446 ± 0.0078; in the series with Saccharomyces cerevisiae [1] (setting [4]) it was 0.464 ± 0.031; with Saccharomyces cerevisiae [1] (setting [5]), 0.378 ± 0.019; with Saccharomyces cerevisiae [1] (setting [6]) it was 0.533 ± 0.0079; in the series on Saccharomyces cerevisiae [1] (setting [7]), 0.297 ± 0.011; in the series on Saccharomyces cerevisiae [1] (setting [8]), 0.329 ± 0.037. Also, the protein stability index with Saccharomyces cerevisiae [1] (setting [9]) was 0.501 ± 0.028; in the series with Saccharomyces cerevisiae [2], 0.421 ± 0.035.
